Our source for the Km, kcat and kcat/Km values is publication PMC6987092, “Characterization and diversity of the complete set of GH family 3 enzymes from Rhodothermus marinus DSM 4253” (Scientific Reports, 2020).

For orientation: Km means the substrate concentration at which the rate is half of its maximum. What is called kcat is the maximal rate divided by the concentration of active sites. In general, kcat/Km refers to the second-order rate constant that governs catalysis at low substrate concentration.

In one data set the target is T1, RmXyl3B (Rhodothermus marinus, UniProt D0MHL5).
T1 construct: gene Rmar_1081; locus tag is that of the type strain DSM 4252T homolog, gene cloned from DSM 4253
Put plainly: pNP release at […] nm. As to conditions: 20 mM citrate phosphate pH 5.6, 60 °C. It is filed as biochemical.

Substrate in data set [1]: O=[N+]([O-])c1ccc(O[C@@H]2O[C@H](CO)[C@@H](O)[C@H](O)[C@H]2O)cc1
Put plainly: purified protein. Particulars: 20 mM citrate phosphate pH 5.6, 60 °C.

Substrate in data set [2]: O=[N+]([O-])c1ccc(O[C@@H]2OC[C@@H](O)[C@H](O)[C@H]2O)cc1
Nature of the data set: purified protein. It is filed as biochemical, Rhodothermus marinus. Particulars: 20 mM citrate phosphate pH 5.6, 60 °C.

Substrate in data set [3]: CC(=O)N[C@H]1[C@H](Oc2ccc([N+](=O)[O-])cc2)O[C@H](CO)[C@@H](O)[C@@H]1O
Put plainly: purified protein. It is filed as biochemical, Rhodothermus marinus. Particulars: 20 mM sodium phosphate buffer, 60 °C.

T1 sequence (D0MHL5 entry or part of it): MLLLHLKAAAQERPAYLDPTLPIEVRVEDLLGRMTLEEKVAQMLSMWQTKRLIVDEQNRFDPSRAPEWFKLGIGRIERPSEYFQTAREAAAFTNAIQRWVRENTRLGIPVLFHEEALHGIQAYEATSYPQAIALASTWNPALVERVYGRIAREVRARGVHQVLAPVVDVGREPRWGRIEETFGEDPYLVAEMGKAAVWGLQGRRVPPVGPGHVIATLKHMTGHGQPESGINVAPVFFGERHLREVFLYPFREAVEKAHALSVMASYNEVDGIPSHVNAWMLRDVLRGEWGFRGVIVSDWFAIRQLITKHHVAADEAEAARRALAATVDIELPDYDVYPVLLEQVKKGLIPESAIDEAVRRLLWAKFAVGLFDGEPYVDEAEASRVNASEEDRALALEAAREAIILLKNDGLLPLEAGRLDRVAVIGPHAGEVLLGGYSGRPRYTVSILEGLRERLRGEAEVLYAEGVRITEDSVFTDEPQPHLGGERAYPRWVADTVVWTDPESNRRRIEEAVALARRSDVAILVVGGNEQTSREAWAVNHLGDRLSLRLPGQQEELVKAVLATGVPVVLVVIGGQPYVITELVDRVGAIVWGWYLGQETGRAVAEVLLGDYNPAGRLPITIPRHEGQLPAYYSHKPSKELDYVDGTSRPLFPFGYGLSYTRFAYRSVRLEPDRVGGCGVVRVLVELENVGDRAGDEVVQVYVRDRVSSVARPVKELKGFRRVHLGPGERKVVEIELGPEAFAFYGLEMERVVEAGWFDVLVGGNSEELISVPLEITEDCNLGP

With `O=[N+]([O-])c1ccc(O[C@@H]2OC[C@@H](O)[C@H](O)[C@H]2O)cc1` [pNP-β-Xyl], on RmXyl3B, the Km is 300 µM.

As to `O=[N+]([O-])c1ccc(O[C@@H]2O[C@H](CO)[C@@H](O)[C@H](O)[C@H]2O)cc1` [pNP-β-Glc], the Michaelis constant (Km) at RmXyl3B was found to be 1600 ± 400 µM.

B1: RmBgl3A (Rhodothermus marinus DSM 4252) (protein)
chain: MRTLRLLTLSLLWSGWLLPAIAQVDRAREDSLIEALLARMTLEEKLGQLTLYNGGMAETGPVVREGEPDAIRRGRVGAVMNFFGAEAVCAMQRQAVEESRLGIPLLFALDVIHGFRTIFPVPLAEAATFDPALVEQAARVAAGEASAVGLNWTFAPMVDIARDARWGRIVEGSGEDPYLGAVMAAARVRGFQGRDLRDPTTILATAKHFAAYGAAEAGRDYNTVDVSERTLREVYLPPFEAAVRAGALSIMSAFNEIGGVPATADRWLLTDVLRHEWGFEGLVVSDYTSVWELLFHGIAADSAEVGRKALEAGVDMDMVSGIYVRKLAEEVRAGRLSEAVVDEAVRRVLRVKYRLGLFEDPYRYCRDASREQVLLSPAHRRLAREVARKAIVLLKNEGELLPLADTLQRVAVIGALANDSASVLGPWAAAGRPEDAVTILEGIRAALPGATVRYAPGYAEVPSGSFQEMVAAALSPDTSGFAEAEAVARWAEVVILVLGEHRELSGEAASRASVELPGVQLALAWRLLALGRPVVVVLMNGRPLAIPELAASAPAIVEAWFLGTEMGHAVADVLLGKASPGGRLPVSFPRATGQEPLYYNHKPTGRPPRAEEKYTSKYVDVPWTPLYPFGYGLTYTTFAYDSLRLSRRRLGLDDTLEVVVSVTNTGRRRGEEVVQLYVRDEVASVTRPVKELKGFARVELAPGETKAVQFRLPVRALRFWGLEGGWVVEPGWFTLWVGPSSAEGLQARFEVVSP
notes: recombinant in E. coli BL21 C43 (pJOE3075), C-terminal His-tag, no signal peptide predicted; locus tag is that of the type strain DSM 4252T homolog, gene cloned from DSM 4253
As for B1, in “purified protein [1]”, the Km was determined as 100 ± 0 µM, the kcat was 79.9 s⁻¹ and the specificity constant (kcat/Km) came to 755000 M⁻¹ s⁻¹. Further, in “purified protein [2]”, the Km came to 11800 ± 1000 µM, the kcat was 140.8 ± 0.6 s⁻¹ and the specificity constant (kcat/Km) worked out at 12000 M⁻¹ s⁻¹.

B2: RmXyl3A (Rhodothermus marinus DSM 4252) (protein)
chain: QERPAYLDPTLPIEVRVEDLLGRMTLEEKVAQMLSMRQTKRLIVDEQNRFDPSRAPEWFKLGIGRIERPSEYFQTAREAAAFTNAIQRWVRENTRLGIPVIFHEEALHGLRAAEATSYPQAIALASTWNPALVERVYGRIAREVRARGVHQVLAPVVDVGREPRWGRIEETFGEDPYLVAEMGKAAVWGLQGRRVPPVGPGHVIATLKHMAGHGQPESGINVAPVFFGERHLREVFLYPFREAVEKAHALSVMASYNEIDGIPSHANAWMLRDVLRGEWGFRGVIVSDWHGIPQLITRHHVAENLEEAARLALQATVDVELPDYEAYATLVDQVRRGLIPELAVDEAVRRLLWAKFAVGLFDGEPYVDEAEASRVNASEEDRALALEAAREAIILLKNDGLLPLEAGRLDRVAVIGPHAGEVLLGGYSGRPRYTVSILEGLRERLRGEAEVLYAEGVRITEDSVFTDEPQPHLGGTWARQRNAAHRVVFTPPEANRSRIEEAVALARTSDVVVLVVGGNEQTAREAYAPYHLGDRLSLRLPGQQEELVKAVLATGVPVVLVVIGGRPYVITELVDRVGAIVWGWYLGQETGRAVAEVLLGDYNPAGRLPITIPRHEGQLPAYYSHKPSKELDYVDGTSRPLFPFGYGLSYTRFAYRSVRLEPDRVGGCGVVRVLVELENVGDRAGDEVVQVYVRDRVSSVARPVKELKGFRRVHLGPGERKVVEIELGPEAFAFYGLEMERVVEAGWFDVLVGGNSEELISVPLEITEGCNLGR
notes: locus tag is that of the type strain DSM 4252T homolog, gene cloned from DSM 4253
With B2, in “purified protein [1]”, the Km was 6500 ± 800 µM, the turnover number (kcat) is 29.2 s⁻¹ and the kcat/Km came to 4500 M⁻¹ s⁻¹. Further, in the data set “purified protein [2]”, the Km worked out at 400 ± 0 µM, the turnover number (kcat) stood at 50.1 ± 1.9 s⁻¹ and the kcat/Km amounted to 140000 ± 15700 M⁻¹ s⁻¹.

B3: RmBgl3C (Rhodothermus marinus DSM 4252) (protein)
chain: CQKAEQQPPSTAAFPPLSSYDEQARALLEQMTLEEKIGQMIQAEQAFLQDPYDIQTYHLGSILSGGNSDPADGNSLEAWTEVYDSLQAIALRTRLGIPLLYGIDAVHGHSNVEGAVVFPHHIGLGATRDPDLVERVYRITAIEMRATGIHWNFAPCIAVARDERWGRTYESFSEDPELVATLGAAAVRGLQNGGLNNPLAVLATAKHFAGDGGTAFGTGGPQGALLDQGDVRLDEATFRRIHVRPYIDAIQAGVGSIMVSYSSWNGVKMTGHKYMLTDVLKGELGFEGIVISDYNAIDQVHPDYKTAIEIAINAGIDMAMVPTRYREFFQLLKELVEEGRVPMERIDDAVLRILRVKFAMGLMDGPEHVFADRSLWAKFGSAEHRAVAREAVRKSLVLLKNENQTLPLAKDLGRIHVAGLHADNLGYQAGGWTIDWQGGSGDITEGTTILEAIRKAVAPGTEVTYSEDGSGAAGADVAIAVIGERPYAEFLGDRSDLSLDPDDVAVVRRLKEAGVPVVVILISGRPMIINDVLEMADAFIAAWLPGSEGDGVADVLFGDYAPTGKLPFSWPRSMDQIPINVGDEDYDPLFPFGYGLTY
As for B3, in “purified protein [1]”, the Km amounted to 1600 ± 900 µM, the catalytic constant (kcat) is 67.2 s⁻¹ and the kcat/Km was 42900 M⁻¹ s⁻¹.

B4: RmBgl3B (Rhodothermus marinus DSM 4252) (protein)
chain: QSSRVDSLLAAMTLAEKISLLHGAIDPTGEAGAGYVPGVPRLGIPAMRLTDGPAGIRTRHPATALPAPVALAASFDPELAYRYGHVMGIEGRARRHEVLLSPMVNIVRVPEAGRNFETFSEDPLLSAEMVAAEVRGIQDAGMMATVKHYVANNFENDRMRVNVVVDERTLREIYLPGFEAAIKAGAAAVMCAYNRVNGPYACDNEMLLTDILRDEWGFEGWVMTDWFAGHSLESLVRGLDQEMPGYTIPFSSPDMPLAPAVFADSLLAAVESGRIDEAYVDRAVRRILVQMEQFGLLDGESTPPEINIEAHAAVAREVAEAGAVLLRNENQTLPLSERDLQHLVVIGPTATRPLIGGGGSSRVQPFRTTSTLAALQELAGPQAQIRYVPGIDLDGMPVPSSALRTPDGQPGLLRQGADGTTQVDAQLDFTGERALPPGSQWTWTGTLTAPTAGVYELKLQTAGGVGTLSIDGQPVLRTGMFFSDASLIPTADSLENATYRIELQAGQQLSLTVQISGQVPSLPFLPAGQNPVQVRLAWVTPERRAAFLEEAAEAARAAHAAIVFVYEEGTEGRDRETLALRPDQDALVEAVAAANPRTTVVMNVGAPTLMPWAERVGAILLMWYPGQEGGWATADVLLGRANPAGRLPVTFPRRAEDAPTASPERYPGVDLTARYDEGIFVGYRWYDAQQIEPLFPFGHGLSYTTFAYENLRVEPDGDGFVVRFVVRNTGDRAGSDVPQVYLGPPENPPVPMAVRQLVGFRRVTLAPGEAQEVTVRIDGRALSYWSVEDHAWVKATGRRTLYVGASARDLRLQTEIDVQ
notes: recombinant in E. coli BL21 C43 (pET-21b(+)), signal peptide removed, C-terminal His-tag; locus tag is that of the type strain DSM 4252T homolog, gene cloned from DSM 4253
In the case of B4, in the data set “purified protein [1]”, the Km was 100 ± 0 µM, the kcat is 49.5 s⁻¹ and the kcat/Km amounted to 511000 M⁻¹ s⁻¹. Further, in “purified protein [2]”, the Km stood at 1200 ± 100 µM, the catalytic constant (kcat) was 65.8 ± 0.4 s⁻¹ and the kcat/Km is 56200 ± 700 M⁻¹ s⁻¹.

B5: RmNag3 (Rhodothermus marinus DSM 4252) (protein)
chain: HRSELDTAPPDRTRPGAWTETQLRTLTLAQQIGQLFAVRARGVFQSVDDPDYRELVRLVEQFQVGGVIFFQGDPYSQAMLANELQRRSRLPLLIAQDTEWGVAMRVRRTTSFPRAMAIGATGNPDYAYAVGYVTAREARALGVHQLYAPVADVNNNPMNPIINVRAFGEDPLQVATMVRAFVRGVQDAGAIATAKHFPGHGDTSIDSHSDLPVLRFDRKRLDTLELVPFRAAIKAGVQSIMTGHLALPRLDPTPNLPASLSRRITHELLREELGFDGLVVTDALEMQGVTKHFGVGEAAVRALEAGADMLLLSEDVEAARSAILQAVAQGRLSRARIEASVRRILLAKERLGLHRERLVDLNAIPYVVGIAPHQALSQTIARASLTLLRNEGNLLPLPDVPATPRQLQVIILSDSDDPATGRFFVQTLREIAPDDRIASRLLDVRSHPDDYRAALEAAARADVVLVPAYLFVRSGTGRIRLPERQRTFLDALIAQGRPVVLIAFGNPYLIMDLQRPPAVYLAAYGGSESTQRAAVQAIFGQAPFTGRLPITIPGHFQRGDGLQLEQVAPRLAYPEEVGMSTQRLYRVDSLLRAAIADSAFPGAAVAIGRGPAIVWLKGYGHFTYTSDQRVTPSSVFDLASLTKVVVTTTAAMQLYEAGKLDLDAPVVRYLPEFGQNGKERVTIRQLLSHTAGLAPFHPFHRMGITTAEAVRQAILSDSLIYEPGTQSRYSDLGMIVLGWVIERITGQPLDRYAAEHIFRPLGMRHTGFRPVGRPDTTVVPTEIDTIFRHRLIQGEVHDETAWILGGVAGHAGLFSTAEDLARFAYMLVNEGRIGGRPFLKPETIRLFTTPVDPERAGTRALGWDTRSREGYSSAGRLFGSRSFGHTGFTGTSIWIDPDQQLFVILLTNRVYPTRENRKHLAVRARLADLAYEALIGPPTLNLNALLP
notes: recombinant in E. coli BL21 C43 (pJOE3075), signal peptide removed, C-terminal His-tag, includes beta-lactamase domain; locus tag is that of the type strain DSM 4252T homolog, gene cloned from DSM 4253
For the molecule B5, in “purified protein [3]”, the Km was determined as 100 ± 0 µM, the catalytic constant (kcat) was determined as 102 ± 3 s⁻¹ and the kcat/Km amounted to 1.31e+06 ± 50300 M⁻¹ s⁻¹.
